Results reported in IntAct's records for PubMed 11571280.

B1: Polycomb protein Pcl (Drosophila melanogaster (Fruit fly)), Q24459 (parent)
chain: MMNNHFHLQHDHPPQNVAHPFMQQPSTAVPSAPPATYGYLAQPAGQQPQWMTTTYQILPPSVGPATVAKRYYATTGPQTTHPTHPSTIQITNSFAQQSTPPKQQAATSCSPFKANNIRIISTAPSVYSLNKPPQEAHSTYAPVQSYYLPSGGGQTAGQINLLAASGTGKQLQPPPLVPVTNSTSPPSTVVLDRINICINNHYTETPTSLSSSLTTAQQPSPIIPAIQHKAILPLIDSSTADSSSCSSSSVSSSSYSGTATTSAAVVIVDEPDSTTTTPQTPPTTPEAMSSPGKSSPSPPLLATQSLLKGVNSMKPSFKTVEAAPPTPPTPPSPPPPPPAPPVAAPSPAVTYALQEDVFIKCNDGRFYLGTIIDQTSDQYLIRFDDQSEQWCEPDKLRKLGGGSSITAGGGGASTTESTNTSPSGPMCVACKRSDIEDVVEICERCGRGYHRGCTVEIVTGSGIWSCKRCAKPMKMQQPVSHKITKPAGICRQLPYHADKLSWDEKHRVNEEQIYCYCGKPGKFDHNMLQCCKCRNWFHTQCMQNFKKKLLRGDMFFVFCCTVCNNGIEFVRRMQIEWVDVLHIALYNLRKHQHQKYHHLLNDIWPFILEQRHQLPICEKWRTLPETALMERLKQTLKDYSDRFVCGREFKRAPAFYALRHSGPPHIPKVFLEPHEELSDELLEKRFKLMLMPEEPDEGANELPKRVPKDVYEFNTDEDDPVETSEDEIPIKQIIEKAKKQAAQKADKHDELPLKPDLADDNANDGDPGKLPAPIPPLLDANSSRKRKAFRLSKRYDNSRNHCDLSSDENSSSSRGTSSLDLIIPPPVNFLGRNNPFLMATPKKASQGRSISVGTGVGVNGIINSIFKLKGTSKEQPRMVRTIKRRLSAKDITIGPNQEVRRRRTRRLTTAIEVISTTTINPIPSHYLPIYAKDLQPPAPPMGKPTHGRLLRQRPQKQSPSQSRRNSTSSTATSSSSNGIGAPGHSMLDLKQSVNKYFGGAMNRIDAGEPFAIRAKRRMGNGQVQYLVEWGGDTATTAIGLLGN

Variants of: B1
Conditions: with ez_drome E(z)

| Variant | effect of a mutation on the interaction |
| --- | --- |
| C517S | decreasing interaction |
| C517A | decreasing interaction |
| C430S | decreasing interaction |
| C430A | decreasing interaction |
